This data set in a line: folding stability dG unfold (combined trypsin and chymotrypsin); higher = more stable. On the procedure: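 Folding stability of de novo designed mini-proteins (<80 aa, no Cys; designed by TrROS, TrMRF, ProteinMPNN and the joint model) was measured by cDNA display proteolysis with trypsin and chymotrypsin. Each protease was used at 11 concentrations in a threefold dilution series plus a no-protease condition. K50 was inferred by Bayesian fitting of sequencing counts, and dG unfold was derived against a sequence-predicted unfolded-state K50 (Tsuboyama et al. method). Sequences shown include variable-length N-terminal GS-type padding (SAGGSAGG...) inside a display construct carrying a PA tag. Rows were kept only if the AF2 dimer inter-PAE was >15, to exclude likely homo-oligomers.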
Take “SAGGSAGGSAGMNKKVVATFTDPNSDTTTTLVGPEEAFKSQFPPETASYSLTTVPEEALLSAGGSAGGSAGG [r11_334_JUSTAS]”: the “folding stability dG unfold” value was < -1 kcal/mol. Take “SAGGSAGGSAGMPFKITKVTPDGKITIYDGGNPITIPPGSDHIKIEFGGGTKEIKIPPGMSAGGSAGGSAGG [r11_647_TrROS]”: the “folding stability dG unfold” value was < -1 kcal/mol. Regarding “SAGGSAGGSAGMTTYEGTDPEELREAVEAEAKARGVEIEITSVTTSPDGKYTLDVKVTPPSAGGSAGGSAGG [r11_304_JUSTAS]”, the “folding stability dG unfold” value is < -1 kcal/mol. In the case of “SAGGSAGGSAGNIEVNGDRIKIRFEGGHEFTFPNLPPGKPIEFKFNNQPFRIRDVEVEPPSAGGSAGGSAGG [r11_16_TrROS]”, the “folding stability dG unfold” value is < -1 kcal/mol. For the sequence “SAGGSAGGSAGPDDFVTLTETIVEEIDPNLAELPPEVAERLVKEGVKVIEKVLTKVAPPSLLSAGGSAGGSA [r18_127_JUSTAS]”, the “folding stability dG unfold” value was < -1 kcal/mol. Turning to “SAGGSAGGSAGPEVRPAPTPDGREVWVLRRTRRHPGPGDGVVVEEEVVPADDPEALRRRASAGGSAGGSAGG [r11_967_TrMRF]”, the “folding stability dG unfold” value was < -1 kcal/mol. As to “SAGGSAGGSAGPKEPIYYRLRIEPPNGETREFEFPVGASVEDIAKEFNIPPGGRVELEPVSAGGSAGGSAGG [r11_340_TrROS]”, the “folding stability dG unfold” value was < -1 kcal/mol.

Consider “SAGGSAGGSAGPKPVMWRIEFDNPDNGQKQEITIMIPPDDPEQAEEIAKKIGPNVKIEPVSAGGSAGGSAGG [r11_250_TrROS]”, for which the “folding stability dG unfold” value is < -1 kcal/mol. “SAGGSAGGSAGPKWKTINFPIDLKPGQSAKEIAKKFAEANPDMEIDGFNPERGWASITVPSAGGSAGGSAGG [r11_465_TrROS]”: the “folding stability dG unfold” value is < -1 kcal/mol. As for “SAGGSAGGSAGPPFEVVGVSRHGDSVTVLARNPDSDELVASTFTNGVIGSTAVIPSEEVGSAGGSAGGSAGG [r11_19_TrMRF]”, the figure is < -1 kcal/mol.

With “SAGGSAGGSAGPPVPKLFKVKEVTYHPGPKTVTVKTENGETITVPPGVAENVPPGGYLAASAGGSAGGSAGG [r11_124_TrMRF]”, the “folding stability dG unfold” value was < -1 kcal/mol. As for “SAGGSAGGSAGRMYIIRNPGKKVIIPRGWMPKLQKKNPNVEIEEFESPEDADKAQDKALDSAGGSAGGSAGG [r11_60_TrROS]”, the figure is < -1 kcal/mol; as for “SAGGSAGGSAGSMTVLEEEEIELPDDVVLTRLKVPGEELIRIEIPEEGKEEIIPASEWPGSAGGSAGGSAGG [r17_286_JUSTAS]”, < -1 kcal/mol.

In the case of “SAGGSAGGSAGSMVLESEEPIPETGEPVLVKTTLSEEPGRERTIVTTYRDGKPLSTTVELSAGGSAGGSAGG [r11_631_JUSTAS]”, the “folding stability dG unfold” value was < -1 kcal/mol.

With “SAGGSAGGSAGSPPDQTVTITTTVVTTETTTYPGTPGVTVPRTVVTTVPVTLPVTDPALLSAGGSAGGSAGG [r11_734_JUSTAS]”, the “folding stability dG unfold” value is < -1 kcal/mol. Take “SAGGSAGGSAGSPSEVKYSEEVLEEPLPGGVPYRLVVRTRTVLEGDKVVEEEEETELVLLSAGGSAGGSAGG [r11_35_JUSTAS]”: the “folding stability dG unfold” value is < -1 kcal/mol. For the sequence “SAGGSAGGSAGTEISLPSSLPDRPIETVPVEIVSPGPGDPRRETINVTRTPDRVLAVDRRSAGGSAGGSAGG [r11_21_JUSTAS]”, the “folding stability dG unfold” value is < -1 kcal/mol. As for “SAGGSAGGSAGTIRNPGMEFTIKKDPNDKVVVKMNDQERTIRVGKPIYFPGGMPFRIEPASAGGSAGGSAGG [r11_147_TrROS]”, the figure is < -1 kcal/mol; as for “SAGGSAGGSAGVFWRIRMPGHTIPIPIEGDLNEAKDYIRDEMREHHGEPIDPDNIEIEIVSAGGSAGGSAGG [r11_1028_TrROS]”, < -1 kcal/mol; as for “SAGGSAGGSAGVKPGQTIEVPGAKITVEEVDGKLVLKVEELPPPPAPEVEVKRYVSEEDLSAGGSAGGSAGG [r11_534_TrROS_Hall]”, < -1 kcal/mol. On to “SAGGSAGGSAGWIKEALRDMPPGKPRRIPIRNPDGNPIKIRIKVDRDPENGKYEVPIEIVSAGGSAGGSAGG [r11_343_TrROS]”, for which the “folding stability dG unfold” value is < -1 kcal/mol.

As for “SAGGSAGGSAGYIMIKSPEMAEEMAKPGYEIEVEPVPPKDINNGDPNDTMYIIEIKPPGKSAGGSAGGSAGG [r11_168_TrROS]”, the “folding stability dG unfold” value was < -1 kcal/mol. Turning to “SAGGSAGGSAINLADIHEVEVEEIPEDPTAVYRVRARLPEPGVPVDFLLVRFPDGSVRFYGSAGGSAGGSAG [r3_234_TrMRF]”, the “folding stability dG unfold” value is < -1 kcal/mol.

As for “SAGGSAGGSAKIKVEWEQHPEGYNLVKVEIPNPDNGKKKKVEGPFDSLEDAEDEAKELLKKSAGGSAGGSAG [r3_174_TrROS]”, the “folding stability dG unfold” value is < -1 kcal/mol.

In the case of “SAGGSAGGSAKKIEIDPERDPNGMHLVEVTRRDPGNGKKKDIPFNVNPGKMTPEEIKDLAKSAGGSAGGSAG [r3_127_TrROS]”, the “folding stability dG unfold” value is < -1 kcal/mol.

As for “SAGGSAGGSALLPLPEDAVLEVPFPGTEEEAEVFAAELAKAFPVGEITLEKEPTSYRLVVRSAGGSAGGSAG [r3_73_TrMRF]”, the “folding stability dG unfold” value is < -1 kcal/mol. With “SAGGSAGGSAMNPSEPYVTLTETVVEEAEEVVETFPGYGVYKYTETKLKTTVKVTTVPKSLLSAGGSAGGSA [r18_137_JUSTAS]”, the “folding stability dG unfold” value was < -1 kcal/mol. Take “SAGGSAGGSAMPEEEKPPIVRTVVLQADGEPIVLTSKPDEEIKLPPSLANAVVLEEEVSPGLSAGGSAGGSA [r18_415_JUSTAS]”: the “folding stability dG unfold” value is < -1 kcal/mol.

Take “SAGGSAGGSAMPVVEIGLEMEPYEPEAGGKLMLVPIKDNLLPEHALAAARLLEPLGVVTAPSAGGSAGGSAG [r3_157_TrMRF]”: the “folding stability dG unfold” value is < -1 kcal/mol. In the case of “SAGGSAGGSANFRILVDPPTNKIWIFDPPGYVYKIKVDPKEGKMKHEPVPIPPDDLPPNAFKSAGGSAGGSA [r18_59_TrROS]”, the “folding stability dG unfold” value is < -1 kcal/mol. Next, “SAGGSAGGSANLEAAKKLFKDYPPGEEREIPIRVRTPGKPVPFRIKIYYPEDGNMKIDIEPYSAGGSAGGSA [r18_493_TrROS]”: < -1 kcal/mol; “SAGGSAGGSAPKLKFETEPYPNGGYYHKVKIDLEGPKIPITIPVNNNQPMPIEDFAKHILKKSAGGSAGGSA [r18_111_TrROS]”: < -1 kcal/mol; “SAGGSAGGSAPMRMIPFRLPAPPGETIEIKFPNGKKHNISVEPHPDGWFHIMVNGGMIWIPASAGGSAGGSA [r18_372_TrROS]”: < -1 kcal/mol. With “SAGGSAGGSAPQRFNIVLEVKEPETGKTKVVKRTLSSEEEALKKIPEGLEVKKITVLPPDVPLSAGGSAGGS [r12_208_JUSTAS]”, the “folding stability dG unfold” value is < -1 kcal/mol. As for “SAGGSAGGSARDALKNIKHVEIEHNPPNNRGTIRIQPPNGKQIKFEFDSPNELLKKAGIEPSAGGSAGGSAG [r3_36_TrROS]”, the figure is < -1 kcal/mol. In the case of “SAGGSAGGSASEIDELLAAGYTVLVKPPDGSEKVIKPGDTASNLDETFNLSPDAEFVIEPKSAGGSAGGSAG [r3_216_JUSTAS]”, the “folding stability dG unfold” value is < -1 kcal/mol. For the sequence “SAGGSAGGSASMKIAKEVRTDPNSDVTYRVEVYRLPGPNVLLVETTYPEGVELSLVEVDPPSAGGSAGGSAG [r3_123_JUSTAS]”, the “folding stability dG unfold” value was < -1 kcal/mol.

On to “SAGGSAGGSATPTPGDDYVYLTEESPDGRTIRYPETGSTIYIPADVPVNLKVNPVRGPDGVPESAGGSAGGS [r20_105_JUSTAS]”, for which the “folding stability dG unfold” value is < -1 kcal/mol. With “SAGGSAGGSAVLRSALDRPVPVLLLTVPRDEVPEEEIRSLLPPELAEQFLKTAPKDSVIVASAGGSAGGSAG [r3_326_TrMRF]”, the “folding stability dG unfold” value is < -1 kcal/mol. For the sequence “SAGGSAGGSAYKLKDITMRRMPNGYHEVEIKVDNGKKIDVTIPPDNPGRSIEEFAKEVLDNSAGGSAGGSAG [r3_368_TrROS]”, the “folding stability dG unfold” value was < -1 kcal/mol. As to “SAGGSAGGSFEVEPTPDHVSIRYYNPDGNPPVSATVDPPEGDIDFEHPDKKQEFPLKPGDTLISAGGSAGGS [r12_536_TrROS]”, the “folding stability dG unfold” value was < -1 kcal/mol. As for “SAGGSAGGSGKKYMIDSPEAMNDMRDAGIPPKKIEPEPYPIPANDNPGFKDMPWPMTMYRVKVSAGGSAGGS [r12_78_TrROS]”, the figure is < -1 kcal/mol.

On to “SAGGSAGGSGSMNISPNVKKFTIKSTGTEEKAKEEAEKIKNSLPKNVPIEITFEPLDPKEFKKSAGGSAGGS [r12_744_JUSTAS]”, for which the “folding stability dG unfold” value is < -1 kcal/mol. In the case of “SAGGSAGGSKLPDGPYKIRMPHNGRPYEMPIRVTSDGMIEVRMPGEGKKRTFPLNQAEIEPLDSAGGSAGGS [r12_782_TrROS]”, the “folding stability dG unfold” value was < -1 kcal/mol. As for “SAGGSAGGSKMTVRIDEVHTHKHDGRRYLSVPLRFPDNGKPIDFHIPPDDLKNLKPGEEITIESAGGSAGGS [r12_382_TrROS]”, the “folding stability dG unfold” value is < -1 kcal/mol.

As for “SAGGSAGGSMPVTRPVATLPGPVTLYETTSPGERRLVRVTETPLPTPEPRTEVRLTVEVRPVGSAGGSAGGS [r12_353_JUSTAS]”, the “folding stability dG unfold” value is < -1 kcal/mol.

Consider “SAGGSAGGSMVVTTTEFDLNGVKATLSIDDTGSATAKIPDPSYKEDVLKLIPSSFSLTSFDAESAGGSAGGS [r12_9_JUSTAS]”, for which the “folding stability dG unfold” value is < -1 kcal/mol.

Take “SAGGSAGGSNPDNNFPPRPKEPIKFPGEGMKIWVYKNHGHIFMEPPPGERQMGTIDPEDGKIVSAGGSAGGS [r12_420_TrROS]”: the “folding stability dG unfold” value is < -1 kcal/mol. As for “SAGGSAGGSPGNIPINIKIEPYDPDGGEKRKRTIPFPFQDPEGARRHLNKIADEFPPGWRVEISAGGSAGGS [r20_211_TrROS]”, the “folding stability dG unfold” value is < -1 kcal/mol. Regarding “SAGGSAGGSQKITIEWHKPGAWRIRIPGNGRERHLPMDKPLEEIANTAEKKFPNIPVEIERVKSAGGSAGGS [r12_423_TrROS]”, the “folding stability dG unfold” value is < -1 kcal/mol. For “SAGGSAGGSRTFRSPSGVRYTETSSVLETSPDPENGLWSTVTSSVVSVDPGPPAPPPPLSPALVSAGGSAGG [r6_939_JUSTAS]”, the “folding stability dG unfold” value is < -1 kcal/mol.

As to “SAGGSAGGSSEKEEKIRNIIKENFPENVIKKVEFNNDIVKIYGIPEYVKKAKEKLGSKNFIENSAGGSAGGS [r12_748_TrMRF]”, the “folding stability dG unfold” value was < -1 kcal/mol.

On to “SAGGSAGGSSQEIQKRIQDRLRPRGPNRKPTPLEFTPKNGTITIKWKNPWHRKALKELPGIEPSAGGSAGGS [r12_623_TrROS]”, for which the “folding stability dG unfold” value was < -1 kcal/mol.

(Values after the supplement of paper PMC12764529.)
